Source: patent publication US20160185859A1 (Pfizer, published 2016)
Where two headings read alike, the source gives them in different places.

T1: human 5T4 antigen (human, UniProt Q13641 32-355, limits assumed)
T1 sequence: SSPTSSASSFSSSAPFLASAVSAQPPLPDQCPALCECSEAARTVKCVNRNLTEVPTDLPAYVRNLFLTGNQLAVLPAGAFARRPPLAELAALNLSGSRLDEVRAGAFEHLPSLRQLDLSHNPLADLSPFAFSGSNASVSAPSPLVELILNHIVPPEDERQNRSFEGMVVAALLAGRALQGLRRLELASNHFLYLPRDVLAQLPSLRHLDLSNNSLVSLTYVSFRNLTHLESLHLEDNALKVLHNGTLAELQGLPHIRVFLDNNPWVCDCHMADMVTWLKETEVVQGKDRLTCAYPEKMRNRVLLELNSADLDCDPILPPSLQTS

T2: human 5T4 antigen expressed on cells (PC14PE6 cells; MDAMB435/5T4 cells) (human, UniProt Q13641 32-420)
T2 construct: PC14PE6 are human non-small cell lung cancer cells; also called 5T4-expressing PC14PE6 cells
T2 sequence: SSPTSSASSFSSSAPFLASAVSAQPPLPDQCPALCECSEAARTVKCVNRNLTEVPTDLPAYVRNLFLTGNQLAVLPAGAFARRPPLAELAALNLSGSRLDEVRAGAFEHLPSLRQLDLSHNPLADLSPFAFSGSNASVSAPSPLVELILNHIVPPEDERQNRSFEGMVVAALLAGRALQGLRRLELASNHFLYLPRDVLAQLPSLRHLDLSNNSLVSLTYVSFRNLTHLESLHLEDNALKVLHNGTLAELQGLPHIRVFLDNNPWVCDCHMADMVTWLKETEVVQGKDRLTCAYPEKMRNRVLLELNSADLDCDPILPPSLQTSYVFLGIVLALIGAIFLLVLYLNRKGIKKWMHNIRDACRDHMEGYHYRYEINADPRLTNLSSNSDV

T3: cynomologous monkey 5T4 ectodomain Fc (cynomologous monkey; human, UniProt Q4R8Y9 32-355)
T3 construct: not shown: Fc constant regions from human IgG1
T3 chain: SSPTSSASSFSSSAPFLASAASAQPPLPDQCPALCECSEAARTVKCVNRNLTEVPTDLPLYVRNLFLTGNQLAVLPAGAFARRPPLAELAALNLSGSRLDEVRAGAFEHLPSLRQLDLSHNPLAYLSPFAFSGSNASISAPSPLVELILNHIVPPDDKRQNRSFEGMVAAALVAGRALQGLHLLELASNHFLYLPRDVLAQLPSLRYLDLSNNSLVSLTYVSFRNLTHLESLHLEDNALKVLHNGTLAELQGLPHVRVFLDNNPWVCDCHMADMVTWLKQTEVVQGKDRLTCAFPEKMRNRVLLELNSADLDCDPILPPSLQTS

T4: human 5T4 ectodomain Fc (human, UniProt Q13641 32-355)
T4 construct: also called human 5T4 ectodomain Fc fusion protein; Human 5T4 Ectodomain/Fc Fusion; not shown: Fc constant regions from human IgG1
T4 sequence: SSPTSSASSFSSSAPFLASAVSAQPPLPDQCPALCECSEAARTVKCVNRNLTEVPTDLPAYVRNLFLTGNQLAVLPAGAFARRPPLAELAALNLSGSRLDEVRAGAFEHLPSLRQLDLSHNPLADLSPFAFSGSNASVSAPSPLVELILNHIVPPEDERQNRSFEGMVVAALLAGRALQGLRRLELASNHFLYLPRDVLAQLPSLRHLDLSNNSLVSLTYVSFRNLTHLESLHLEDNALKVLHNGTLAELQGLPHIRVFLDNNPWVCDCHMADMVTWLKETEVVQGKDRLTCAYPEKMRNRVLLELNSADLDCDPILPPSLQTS


Legend:
[1] = biological target: T1, human 5T4 antigen; experiment: BIACORE (SPR); human 5T4 antigen immobilized on CM5 chip
Description: (§1) To assess the binding specificity and affinity of the A1, A2, and A3 antibodies, BIACORE® analysis was performed using human 5T4 antigen immobilized on a CM5 chip. BIACORE® technology utilizes changes in the refractive index at the surface layer upon binding of the antibody to the 5T4 antigen immobilized on the layer. Binding is detected by surface plasmon resonance (SPR) of laser light refracting from the surface. Analysis of the signal kinetics on rate and off rate allows discrimination between non-specific and specific interactions. The H8 anti-5T4 antibody was used as a control. H8 is a hybridoma-generated monoclonal mouse IgG1 antibody described in PCT International Publication No. WO 98/55607 and in Forsberg et al. (1997) J. Biol. Chem. 272(19):[…].

[2] = biological target: T1, human 5T4 antigen; experiment: BIACORE; human 5T4 chip saturated with first antibody H8 (competitor)
Description: Epitope mapping of the H8, A1, A2, and A3 antibodies was also performed using BIACORE® using a CM5 chip with bound human 5T4 antigen. The chip was saturated with H8, A1, A2, or A3 antibody, and a first response was measured. The chip was then saturated with a second antibody from among the H8, A1, A2, and A3 antibodies, and a second response was measured. For multiple experiments, the chip was regenerated by dissociation of the bound antibodies in 10 mM glycine, pH 1.5, followed by a buffer wash. The percentages shown are the response units measured upon binding by a second antibody directly to the CM5 chip divided by the response units measured upon binding of the second antibody to a CM5 chip saturated with a first antibody.

[3] = biological target: T2, human 5T4 antigen expressed on cells …; experiment: FACS of PC14PE6 cells
[4] = biological target: T1, human 5T4 antigen; experiment: BIACORE (SPR); human 5T4 antigen immobilized on CM5 chip; remark: listed apart in the source
Description: as §1
To assess the binding specificity and affinity of the chimeric and humanized H8, A1, A2, and A3 antibodies, BIACORE® analysis was performed using human 5T4 antigen immobilized on a CM5 chip. See Example 2.

[5] = biological target: T1, human 5T4 antigen; experiment: BIACORE; human 5T4 chip saturated with first antibody humanized H8 (competitor); 150 s after injection of second antibody
[6] = biological target: T1, human 5T4 antigen; experiment: BIACORE; human 5T4 chip saturated with first antibody humanized H8 (competitor); 300 s after injection of second antibody
[7] = biological target: T1, human 5T4 antigen; experiment: BIACORE; human 5T4 chip saturated with first antibody humanized H8 (competitor); 75 s after injection of second antibody
[8] = biological target: T1, human 5T4 antigen; experiment: BIACORE; human 5T4 chip saturated with first antibody humanized H8 (competitor); 600 s after injection of second antibody
[9] = biological target: T1, human 5T4 antigen; experiment: BIACORE; human 5T4 chip saturated with first antibody humanized H8 (competitor); 37.5 s after injection of second antibody
[10] = biological target: T1, human 5T4 antigen; experiment: BIACORE; human 5T4 chip saturated with first antibody humanized H8 (competitor); 19 s after injection of second antibody
[11] = biological target: T3, cynomologous monkey 5T4 ectodomain Fc; experiment: ELISA; 5T4 ectodomain/Fc fusion protein from transiently transfected COS-1 cells; given as ED50
Description: (§2) To assay binding of anti-5T4 antibodies, 5T4 ectodomain/Fc fusion proteins were transiently transfected into COS-1 cells, and ELISA assays were performed. Non-relevant human IgG4 and IgG1 antibodies were used as controls.

[12] = biological target: chimpanzee 5T4 ectodomain Fc (chimpanzee; human, UniProt P01857 99-330 = IgG part); experiment: as above
Description: as §2

[13] = biological target: T4, human 5T4 ectodomain Fc; experiment: as above
Description: as §2

[14] = biological target: T1, human 5T4 antigen; experiment: ELISA; inhibition of biotinylated chimeric A1 antibody binding to human 5T4

Binder	Ka [1]	Kd [1]	koff [1]	kon [1]	percentage response of second antibody following saturation with first antibody [2]	Mean Cellular Flouresence [3]	Ka [4]	Kd [4]	koff [4]	kon [4]	IC50 [14]	other results
murine anti-5T4 antibody A1 (antibody, V domains shown) VH: QIQLVQSGPELKKPGETVKISCKASGYTFTNFGMNWVKQGPGEGLKWMGWINTNTGEPRYAEEFKGRCAFSLETTASTAYLQINNLKNEDTATYFCARDWDGAYFFDYWGQGTTLTVSS VL: SIVMTQTPKFLLVSAGDRVTITCKASQSVSNDVAWYQQKPGQSPKLLINFATNRYTGVPNRFTGSGYGTDFTFTISTVQAEDLALYFCQQDYSSPWTFGGGTKLEIK	1.6e+09 M⁻¹	0.64 nM	0.00013 s⁻¹	200000 M⁻¹ s⁻¹	109%	18						
chimeric A1 antibody bearing C67F mutation (antibody, V domains shown, also called Chimeric A1 + C67F; ChiA1+C67F) VH: QIQLVQSGPELKKPGETVKISCKASGYTFTNFGMNWVKQGPGEGLKWMGWINTNTGEPRYAEEFKGRFAFSLETTASTAYLQINNLKNEDTATYFCARDWDGAYFFDYWGQGTTLTVSS VL: SIVMTQTPKFLLVSAGDRVTITCKASQSVSNDVAWYQQKPGQSPKLLINFATNRYTGVPNRFTGSGYGTDFTFTISTVQAEDLALYFCQQDYSSPWTFGGGTKLEIK							2.6e+09 M⁻¹	0.38 nM	6.3e-05 s⁻¹	170000 M⁻¹ s⁻¹		
murine anti-5T4 antibody A3 (antibody, V domains shown, also called muA3) VH: EVQLVESGGGLVQPKGSLKLSCAASGFTFNTYAMNWVRQAPGKGLEWVARIRSKSNNYATYYADSVKDRFTISRDDSQSMLYLQMNNLKTEDTAMYCCVRQWDYDVRAMNYWGQGTSVTVSS VL: DIVMTQSHIFMSTSVGDRVSITCKASQDVDTAVAWYQQKPGQSPKLLIYWASTRLTGVPDRFTGSGSGTDFTLTISNVQSEDLADYFCQQYSSYPYTFGGGTKLEIK	4.6e+08 M⁻¹	2.2 nM	5.2e-05 s⁻¹	24000 M⁻¹ s⁻¹	73%	27						
chimeric A3 antibody bearing C91Y mutation (antibody, V domains shown, also called Chimeric A3 + C91Y; ChiA3+C91Y) VH: EVQLVESGGGLVQPKGSLKLSCAASGFTFNTYAMNWVRQAPGKGLEWVARIRSKSNNYATYYADSVKDRFTISRDDSQSMLYLQMNNLKTEDTAMYYCVRQWDYDVRAMNYWGQGTSVTVSS VL: DIVMTQSHIFMSTSVGDRVSITCKASQDVDTAVAWYQQKPGQSPKLLIYWASTRLTGVPDRFTGSGSGTDFTLTISNVQSEDLADYFCQQYSSYPYTFGGGTKLEIK							1.7e+09 M⁻¹	0.59 nM	1.6e-05 s⁻¹	27000 M⁻¹ s⁻¹		
murine anti-5T4 antibody A2 (antibody, V domains shown, also called muA2) VH: QVQLQQSRPELVKPGASVKMSCKASGYTFTDYVISWVKQRTGQGLEWIGEIYPGSNSIYYNEKFKGRATLTADKSSSTAYMQLSSLTSEDSAVYFCAMGGNYGFDYWGQGTTLTVSS VL: QIVLTQSPAIMSASLGERVTLTCTASSSVNSNYLHWYQQKPGSSPKLWIYSTSNLASGVPARFSGSGSGTSYSLTISSMEAEDAATYYCHQYHRSPLTFGAGTKLELK	6.5e+07 M⁻¹	15 nM	0.00087 s⁻¹	56000 M⁻¹ s⁻¹	99%	7						
huA1 VH v2.0 + huA1 VL v1.1 (antibody, V domains shown, also called humanized A1 VH version 2.0 + humanized A1 VL version 1.1) VH: EVQLVESGGGLVQPGGSLRLSCAASGYTFTNFGMNWVRQAPGKGLEWVAWINTNTGEPRYAEEFKGRFTISRDNAKNSLYLQMNSLRAEDTAVYYCARDWDGAYFFDYWGQGTLVTVSS VL: DIVMTQSPDSLAVSLGERATINCKASQSVSNDVAWYQQKPGQPPKLLIYFATNRYTGVPDRFSGSGYGTDFTLTISSLQAEDVAVYYCQQDYSSPWTFGQGTKVEIK											28 nM	

Continued, in another order:

Ka [1]	Kd [1]	koff [1]	kon [1]	percentage response of second antibody following saturation with first antibody [2]	Mean Cellular Flouresence [3]	Ka [4]	Kd [4]	koff [4]	kon [4]	IC50 [14]	Binder	other results
						~5.4e+09 M⁻¹	≤ 0.18 nM	≤ 1e-05 s⁻¹	~54000 M⁻¹ s⁻¹		chimeric A3 antibody (antibody, human IgG4, V domains shown, also called ChiA3; ChiA3 γ4) VH: EVQLVESGGGLVQPKGSLKLSCAASGFTFNTYAMNWVRQAPGKGLEWVARIRSKSNNYATYYADSVKDRFTISRDDSQSMLYLQMNNLKTEDTAMYCCVRQWDYDVRAMNYWGQGTSVTVSS VL: DIVMTQSHIFMSTSVGDRVSITCKASQDVDTAVAWYQQKPGQSPKLLIYWASTRLTGVPDRFTGSGSGTDFTLTISNVQSEDLADYFCQQYSSYPYTFGGGTKLEIK	percentage of second antibody bound following saturation with first antibody [5]: 67.5%; percentage of second antibody bound following saturation with first antibody [6]: 76.2%; percentage of second antibody bound following saturation with first antibody [7]: 58.4%; percentage of second antibody bound following saturation with first antibody [8]: 83.6%; percentage of second antibody bound following saturation with first antibody [9]: 51.2%; percentage of second antibody bound following saturation with first antibody [10]: 46.2%; EC50 [11]: 0.23 nM; EC50 [12]: 0.2 nM; EC50 [13]: 0.2 nM
										16 nM	huA1 VH v2.0 + huA1 VL v2.4 (antibody, V domains shown) VH: EVQLVESGGGLVQPGGSLRLSCAASGYTFTNFGMNWVRQAPGKGLEWVAWINTNTGEPRYAEEFKGRFTISRDNAKNSLYLQMNSLRAEDTAVYYCARDWDGAYFFDYWGQGTLVTVSS VL: DIQMTQSPSSLSASVGDRVTITCKASQSVSNDVAWYQQKPGKAPKLLIYFATNRYTGVPSRFSGSGYGTDFTLTISSLQPEDFATYYCQQDYSSPWTFGQGTKVEIK	
										27 nM	huA1 VH v2.0 + huA1 VL v3.1 (antibody, V domains shown) VH: EVQLVESGGGLVQPGGSLRLSCAASGYTFTNFGMNWVRQAPGKGLEWVAWINTNTGEPRYAEEFKGRFTISRDNAKNSLYLQMNSLRAEDTAVYYCARDWDGAYFFDYWGQGTLVTVSS VL: EIVMTQSPATLSLSPGERATLSCKASQSVSNDVAWYQQKPGQAPRLLIYFATNRYTGIPARFSGSGYGTDFTLTISSLQPEDFAVYYCQQDYSSPWTFGQGTKVEIK	
